In patent US20150098989A1:
Non-standard residues stand in square brackets, D forms with d. Met(O) = CS(=O)CC[C@H](N)C(=O)O

How the values were obtained:
[1] = molecular target: SNARE complex (VAMP, syntaxin, SNAP-25 bound to GST) (UniProt P60880); experiment: ELISA of SNARE complex formation (SNAP-25-GST, syntaxin, immobilized VAMP); compound at 0.5 mM
[2] = molecular target: SNARE complex (VAMP, syntaxin, SNAP-25 bound to GST) (UniProt P60880); experiment: ELISA of SNARE complex formation (SNAP-25-GST, syntaxin, immobilized VAMP); compound at 2.5 mM
[3] = molecular target: SNARE complex (VAMP, syntaxin, SNAP-25) (UniProt P60880); experiment: SDS-PAGE of SNARE complex (VAMP, syntaxin, SNAP-25), image analysis; compound at 1 mM
Sequence of SNARE complex (VAMP, syntaxin, SNAP-25) (P60880 whole entry, one chain of several): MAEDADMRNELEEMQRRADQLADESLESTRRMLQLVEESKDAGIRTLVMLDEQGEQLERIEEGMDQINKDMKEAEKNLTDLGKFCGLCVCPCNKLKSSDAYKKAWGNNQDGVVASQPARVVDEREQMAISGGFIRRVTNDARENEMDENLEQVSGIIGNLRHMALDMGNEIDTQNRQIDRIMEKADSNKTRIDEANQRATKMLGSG

[4] = molecular target: SNARE complex (VAMP, syntaxin, SNAP-25) (UniProt P60880); experiment: SDS-PAGE of SNARE complex (VAMP, syntaxin, SNAP-25), image analysis; compound at 5 mM

Sequence of SNARE complex (VAMP, syntaxin, SNAP-25 bound to GST) (P60880 whole entry, one chain of several): as above

Row | Binder | % inhibition formation SNARE complex [1] [%] | % inhibition formation SNARE complex [2] [%] | % inhibition formation SNARE complex [3] [%] | % inhibition formation SNARE complex [4] [%]
1 | Ac-EHLKKWM-NH2 [Ac-SEQ ID NO: 8-NH2] | 11 | 44 | – | –
2 | Ac-QHLKEWM-NH2 [Ac-SEQ ID NO: 12-NH2] | 20 | 71 | – | –
3 | Ac-RHFLQWM-NH2 [Ac-SEQ ID NO: 13-NH2] | – | 20 | – | –
4 | Ac-EDLKRWM-NH2 [Ac-SEQ ID NO: 14-NH2] | 43 | 67 | 83 | 100
5 | Ac-NHFLNWM-NH2 [Ac-SEQ ID NO: 15-NH2] | 48 | 42 | 50 | 100
6 | Ac-DHLKKWM-NH2 [Ac-SEQ ID NO: 22-NH2] | 18 | 72 | – | –
7 | Ac-NDLKDWM-NH2 [Ac-SEQ ID NO: 23-NH2] | 10 | 60 | – | –
8 | Ac-DHFQQRM-NH2 [Ac-SEQ ID NO: 24-NH2] | 41 | 55 | 48 | 100
9 | Ac-DHFLDWM-NH2 [Ac-SEQ ID NO: 25-NH2] | 40 | 71 | 83 | 100
10 | Ac-QHLKNWM-NH2 [Ac-SEQ ID NO: 27-NH2] | – | 14 | – | –
11 | Ac-EHFLQWM-NH2 [Ac-SEQ ID NO: 30-NH2] | 24 | 71 | – | –
12 | Ac-NHLKNWM-NH2 [Ac-SEQ ID NO: 31-NH2] | 26 | 59 | – | –
13 | Ac-EHLKQWM-NH2 [Ac-SEQ ID NO: 1-NH2] | 33 | 63 | 59 | 100
14 | Ac-NHLKHWM-NH2 [Ac-SEQ ID NO: 32-NH2] | – | 19 | – | –
15 | Ac-DHFLNWM-NH2 [Ac-SEQ ID NO: 34-NH2] | 27 | 85 | 14 | 59
16 | Ac-DHFLDW[Met(O)]-NH2 [Ac-SEQ ID NO: 56-NH2] | 9 | – | – | –
17 | Ac-EELKRWM-NH2 [Ac-SEQ ID NO: 116-NH2] | – | 69 | – | –
18 | Ac-ENLKRWM-NH2 [Ac-SEQ ID NO: 117-NH2] | – | 65 | – | –
19 | Ac-QDFLHWM-NH2 [Ac-SEQ ID NO: 2-NH2] | 26 | 64 | 37 | 80
20 | Ac-QHLHNVM-NH2 [Ac-SEQ ID NO: 3-NH2] | 31 | 64 | – | –
